{"source": "patent US20170304437A1", "about": "(ALLIGATOR BIOSCIENCE, published 2017)", "key": {"[1]": {"biological_target": "T1, CD28-Fc (provided by Simon Davis, Oxford University) (human, UniProt P10747 19-152, limits assumed)", "T1 construct": "Gift reagent; not shown: Fc part", "experiment": "binding ELISA, coated CD28-Fc", "description": "(§1) The plates were washed (Wash buffer: PBS+0.05% Tween 20 (PBST) Medicago #09-9410-100) and then blocked in PBST+3% BSA (Merck, #1.12018.0100). The plates were washed again and sample or controls (serially diluted 1/3 from […]) were added to the wells. The samples were incubated for 1 h at room temperature and then washed. Detection antibody, goat-anti-human IgG Fγy-HRP (Jackson, #109-035-098) was added and the plates were subsequently developed using SuperSignal Pico Chemiluminescent substrate (Thermo #37069) and detected with an Envision reader (Perkin Elmer)."}, "[2]": {"biological_target": "T2, human CTLA4-Fc (Fitzgerald #30R-CD152) (human, UniProt P16410 38-152)", "T2 construct": "Bought reagent; also called biotinylated-CTLA4; human CTLA-4 (Fitzgerald); not shown: Fc part of the bought fusion", "T2 sequence (P16410 38-152 limits assumed)": "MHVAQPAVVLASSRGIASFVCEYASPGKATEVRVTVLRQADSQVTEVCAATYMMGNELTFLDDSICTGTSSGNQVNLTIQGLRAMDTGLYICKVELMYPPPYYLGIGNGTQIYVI", "experiment": "inhibition ELISA; best molecule is 1040 by Table 8", "description": "(§2) The plates were washed (Wash buffer: PBS+0.05% Tween 20 (PBST) Medicago #09-9410-100) and then blocked in PBST+3% BSA (Merck, #1.12018.0100). The sample (CD86 mutant or wild type protein; serially diluted 1/4 from 30000 to 0.3 ng/ml) was incubated with biotinylated-CTLA4 (Fitzgerald #30R-CD152) in room temperature 1 h, the mixture was then added to the blocked wells in the ELISA plate. Detection was performed with Streptavidin-HRP (Pierce #21126) and the plates were subsequently developed using SuperSignal Pico Chemiluminescent substrate (Thermo #37069) and detected with Envision reader (Perkin Elmer)."}, "[3]": {"biological_target": "T2, human CTLA4-Fc (Fitzgerald #30R-CD152)", "experiment": "binding ELISA, coated CTLA4-Fc; high end tied to 1040 by Table 7", "description": "as §1"}, "[4]": {"biological_target": "T2, human CTLA4-Fc (Fitzgerald #30R-CD152)", "experiment": "binding ELISA, CTLA4-Fc coated, sample titrated, anti-human IgG Fc-HRP, chemiluminescence, data normalised to % [upper panel]", "description": "as §1"}, "[5]": {"biological_target": "T2, human CTLA4-Fc (Fitzgerald #30R-CD152)", "experiment": "inhibition ELISA: sample titrated, pre-incubated with biotinylated CTLA4-Fc, mixture added to coated wildtype CD86-Fc (competitor), streptavidin-HRP [lower panel]", "description": "as §2"}, "[6]": {"biological_target": "T2, human CTLA4-Fc (Fitzgerald #30R-CD152)", "experiment": "binding ELISA, coated CTLA4-Fc; low end tied to 1042 by Table 7", "description": "as §1"}, "[7]": {"biological_target": "T2, human CTLA4-Fc (Fitzgerald #30R-CD152)", "experiment": "Biacore SPR, CD28/CTLA-4 Kd ratio against that of wild type", "description": "The CD86 mutant molecules and controls (serially diluted 1/2 100-1.5 nM) were analyzed for binding in HBs-P (GE, BR-1003-69) at a flow rate […]. The association was followed for 3 minutes and the dissociation for 10 minutes. Regeneration was performed twice using 5 mM NaOH for 30 seconds. The kinetic parameters and the affinity constants were calculated using BlAevaluation 4.1 software."}, "[8]": {"biological_target": "T2, human CTLA4-Fc (Fitzgerald #30R-CD152)", "experiment": "binding ELISA, CD28/CTLA-4 EC50 ratio against that of wild type", "description": "The plates were washed (Wash buffer: PBS+0.05% Tween 20 (PBST) Medicago #09-9410-100) and then blocked in PBST+3% BSA (Merck, #1.12018.0100).\nThe plates were washed again and sample or controls (serially diluted 1/5 from 200-0.001 μg/ml) were added to the wells. The samples were incubated for 1 h at room temperature and then washed. Detection antibody, goat-anti-human IgG Fcγ-HRP (Jackson, #109-035-098) was added and the plates were subsequently developed using SuperSignal Pico Chemiluminescent substrate (Thermo #37069) and detected with an Envision reader"}}}
{"binder": "CD86 mutant clone 1040, gamma2/gamma4 fusion (Fc fusion, Expressed as gamma2/gamma4 fusion, protein A purified; not shown: gamma2/gamma4 Fc) APLKIQAYFNETADLPCQFANSQNLSLSELVVFWQDQENLVLNEVYLGKERFDSVDSKYMGRTSFDSDSWTLRLHNLQIKDKGRYQCIIHHKKPTGMINIHQMNSELSVLA", "values": [{"measurement": "binding result", "setting": "[1]", "value": "no binding"}, {"measurement": "fold improvement of IC50 over wild type", "setting": "[2]", "value": "> 100", "unit": "fold"}, {"measurement": "fold improvement of EC50 over wild type", "setting": "[3]", "value": "2 to 67", "unit": "fold"}, {"measurement": "EC50 (read off the curve)", "setting": "[4]", "value": "~0.009", "unit": "µg/mL"}, {"measurement": "IC50 (read off the curve)", "setting": "[5]", "value": "~0.05", "unit": "µg/mL"}]}
{"binder": "CD86 mutant clone 1042, gamma2/gamma4 fusion (Fc fusion, Expressed as gamma2/gamma4 fusion, protein A purified; not shown: gamma2/gamma4 Fc) APLKIQAYFNETADLPCQFANSQNLSLSELVVFWQDQENLVLNEVYLGKEIFDSVSSKYMGRTSFDSDSWTLRLHNLQIKDKGIYQCIIHHKKPSGMVKIHQMDSELSVLA", "values": [{"measurement": "binding result", "setting": "[1]", "value": "no binding"}, {"measurement": "fold improvement of EC50 over wild type", "setting": "[6]", "value": "2 to 67", "unit": "fold"}, {"measurement": "EC50 (read off the curve)", "setting": "[4]", "value": "~0.3", "unit": "µg/mL"}]}
{"binder": "CD86 mutant clone 904, gamma2/gamma4 Fc fusion (Fc fusion, Fusion to gamma2/gamma4 Fc, HEK293; not shown: gamma2/gamma4 Fc) LKIQAYFNETADLPCQFANSQNQSLSELIVFWQDQENLVLNEVYLGKERFDAVDSKYMGRTSFDSDSWTLRLHNLQIKDKGIYQCIIHHKKPSGMVKIHQMDSELSVLA", "values": [{"measurement": "fold of Kd binding ratio over wild type protein CD86", "setting": "[7]", "value": "> 4", "unit": "fold"}]}
{"binder": "CD86 mutant clone 907, gamma2/gamma4 Fc fusion (Fc fusion, Fusion to gamma2/gamma4 Fc, HEK293; not shown: gamma2/gamma4 Fc) LKIQAYFNETADLPCQFANSQNQSLSELVVFWQDQENLVLNEVYLGKEKFDSVHSKYMGRTSFDSDSWTLRLHNLQIKDKGLYQCIIHHKKPTGMIKIHEMNSELSVLA", "values": [{"measurement": "fold of EC50 binding ratio over wild-type protein CD86", "setting": "[8]", "value": "~10", "unit": "fold"}]}
